Values quoted from earlier work, collected in patent publication US9770419B2, “Methods and compositions of camel derived products” (priority 2012, dated 2017).

Columns and labels:
[1] = test system: colon cancer cell line, HCT-116; settings: in vitro
[2] = test system: DNA damage
[3] = test system: HCV (genotype 4a); settings: compared with human, bovine and sheep lactoferrin

B1: Camel Lactoferrin: iron containing protein, molecular mass 76-80 kDa, 689 amino acids residues, isolated from camel milk (protein, UniProt Q9TUM0 20-708, looked up)
Lactotransferrin: ASKKSVRWCTTSPAESSKCAQWQRRMKKVRGPSVTCVKKTSRFECIQAISTEKADAVTLDGGLVYDAGLDPYKLRPIAAEVYGTENNPQTHYYAVAIAKKGTNFQLNQLQGLKSCHTGLGRSAGWNIPMGLLRPFLDWTGPPEPLQKAVAKFFSASCVPCVDGKEYPNLCQLCAGTGENKCACSSQEPYFGYSGAFKCLQDGAGDVAFVKDSTVFESLPAKADRDQYELLCPNNTRKPVDAFQECHLARVPSHAVVARSVNGKEDLIWKLLVKAQEKFGRGKPSGFQLFGSPAGQKDLLFKDSALGLLRISSKIDSGLYLGSNYITAIRGLRETAAEVELRRAQVVWCAVGSDEQLKCQEWSRQSNQSVVCATASTTEDCIALVLKGEADALSLDGGYIYIAGKCGLVPVLAESQQSPESSGLDCVHRPVKGYLAVAVVRKANDKITWNSLRGKKSCHTAVDRTAGWNIPMGLLSKNTDSCRFDEFLSQSCAPGSDPRSKLCALCAGNEEGQNKCVPNSSERYYGYTGAFRCLAENVGDVAFVKDVTVLDNTDGKNTEQWAKDLKLGDFELLCLNGTRKPVTEAESCHLAVAPNHAVVSRIDKVAHLEQVLLRQQAHFGRNGRDCPGKFCLFQSKTKNLLFNDNTECLAKLQGKTTYEEYLGPQYVTAIAKLRRCSTSPLLEACAFLMR
In the case of B1, the “proliferation of HCT-116” value [1] is listed as “inhibit the proliferation”, the DNA damage [2] is listed as “inhibit” and the antioxidant activities [2] is listed as “exhibits antioxidant activities”. For the same molecule, the “inhibitory effect on HCV” value [3] was “higher than human, bovine and sheep lactoferrin”.
